Experimental data reported in paper PMC4996995.

Molecular target: T1, (His)6-YycF, non-phosphorylated response regulator (Streptococcus pneumoniae TIGR4) (UniProt A0A0H2UQ68)
T1 sequence: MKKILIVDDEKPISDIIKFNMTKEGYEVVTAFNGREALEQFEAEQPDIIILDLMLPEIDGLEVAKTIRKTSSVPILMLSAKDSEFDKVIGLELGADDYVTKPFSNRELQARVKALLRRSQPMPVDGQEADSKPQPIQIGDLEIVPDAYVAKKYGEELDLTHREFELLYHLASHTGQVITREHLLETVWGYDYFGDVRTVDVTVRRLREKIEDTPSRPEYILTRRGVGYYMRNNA
Assay: EMSA
Conditions: EMSA: 50 mM Tris-HCl pH 7.8, 500 mM NaCl, 4 mM MgCl2, 20 uL, 0.5-1.0 nM DNA, 0°C 30 min; 5% native PAGE, TBE, 4°C

Sequence: CATTCGGAGAGAAGAAGACCTAAATTTACAGGAAAATAAAAAATACTTGCATCATTCTTTGAATTTTGATATAATTCTTTCTGTCAAATGTTTTGATTGTAAAAGTTTTTTGAAGAAGGAGGGATATGAAAAATGGACTACCAACGAATCAATGAATATTTAACATCTATATTTAACAATGTCCTTGTAATTGAGG (double strand) [amplicon A (PFabT promoter region)]
- binding: binds
